According to PMC7152510 (Nature structural & molecular biology, 2017):
Where two headings read alike, the source gives them in different places.

Assays:
[1] = target: ΔMIT katanin p60 (E293Q) (Caenorhabditis elegans); test: solution SAXS
AUC [2] = target: the molecule itself; test: AUC
AUC [3] = target: the molecule itself; test: AUC; remark: listed apart in the source

“ΔMIT katanin p60 (E293Q) (domain or fragment)” gave a stoichiometry N [1] of 6.

B1: Caenorhabditis elegans katanin p60 (MEI-1), catalytic subunit, wild type (enzyme, UniProt P34808 1-472, looked up)
chain: MNGDVQSVIRGYLERAQVAKTMSDAGRWNEAGDLLRQLMTDVKSCKISASNRDEHDARNTFLRALEANLKLVQQNVRDEDDLHEAMTRQSGSPEPPADPDVWSKPSPPLPSSSKFGATKKGVGAAGPRPREISKSTSSMSTNPADVKPANPTQGILPQNSAGDSFDASAYDAYIVQAVRGTMATNTENTMSLDDIIGMHDVKQVLHEAVTLPLLVPEFFQGLRSPWKAMVLAGPPGTGKTLIARAIASESSSTFFTVSSTDLSSKWRGDSEKIVRLLFELARFYAPSIIFIDEIDTLGGQRGNSGEHEASRRVKSEFLVQMDGSQNKFDSRRVFVLAATNIPWELDEALRRRFEKRIFIPLPDIDARKKLIEKSMEGTPKSDEINYDDLAARTEGFSGADVVSLCRTAAINVLRRYDTKSLRGGELTAAMESLKAELVRNIDFEAALQAVSPSAGPDTMLKCKEWCDSFGAM
B1 was tested, and the “stoichiometry N” value (AUC [2]) was 6.

B2: Caenorhabditis elegans katanin p60 (E293Q), Walker B mutant, full-length (enzyme, UniProt P34808 1-472, looked up)
chain: MNGDVQSVIRGYLERAQVAKTMSDAGRWNEAGDLLRQLMTDVKSCKISASNRDEHDARNTFLRALEANLKLVQQNVRDEDDLHEAMTRQSGSPEPPADPDVWSKPSPPLPSSSKFGATKKGVGAAGPRPREISKSTSSMSTNPADVKPANPTQGILPQNSAGDSFDASAYDAYIVQAVRGTMATNTENTMSLDDIIGMHDVKQVLHEAVTLPLLVPEFFQGLRSPWKAMVLAGPPGTGKTLIARAIASESSSTFFTVSSTDLSSKWRGDSEKIVRLLFELARFYAPSIIFIDQIDTLGGQRGNSGEHEASRRVKSEFLVQMDGSQNKFDSRRVFVLAATNIPWELDEALRRRFEKRIFIPLPDIDARKKLIEKSMEGTPKSDEINYDDLAARTEGFSGADVVSLCRTAAINVLRRYDTKSLRGGELTAAMESLKAELVRNIDFEAALQAVSPSAGPDTMLKCKEWCDSFGAM
With B2 the “stoichiometry N” value (AUC [3]) was 6.
